According to the DeepSol protein solubility set:

Assay: soluble on expression in E. coli; label from the status in PepcDB or PDB records

Sequence | soluble on expression in E. coli
MGSDKIHHHHHHMAQRSILVGQIWHEGHSFNPILTREKDFLFLRGEAVLEEARASSTALSGIVKTAEALGYRCVPSISARARPGGAIEQKVFDNIVDEFVQAARMQDFDAICLDLHGATLAEHTLDTEGYLLSRLREVVGNDIMISLALDLHAYLTPQMVEQATIITSFRTTPHADIEETGVRAMTLLDSLSNETRPPRAIYSLIPFLTRGNDETWSGPLAEIGAAADRWRARSDVVDLSIFNVHPFLDVPGYGQVVLAYDNGSGAAIDACRDLSDMLWKARDEFQEQLMSVDKALEIARTSRQLLALGDQGDRVMGAGPGDSPEIARVALEHFPGLKVAVPVYDPQAVRTAREAGENATVRMAVGGAFTHSVAPLERDWTVRKLCRARFTNIGPYMAGTEADFGDAAVLTCDAVTVIVTTMAPNVHDPAFYEAVGVPLASQQAVVARAANHYKLSFADIARTITVDTPGLTAFKPHQFPFTQARPFYPLDIVQWSFAPLECNKVG | not soluble
MGSDKIHHHHHHMAQRVGPTRRGVDGTPVEPLSIKHPNAAGIDIGGASHYVAVPPDRVGKGEPAVREFGPHTEDLVAVANWLCACRIDTVALESTGVYWIALYELLQARGFEVWLVDAKSVRHVKARKSDVLDCQWLQQLHSFGLLSQAHRPDEQVCALREMSRLRDITIDERARHTQRMQKALTQMNVQLTNVITDITGETGMNIIRAIVAGGATAWPSRS | not soluble
MGSDKIHHHHHHMARARTQYKCRSCGYISASYLGRCPNCGAWNQFEKESQEVRQTSTKATPSRLMASVGAKEAVKMSTVKAEKEERVLTKSSELNRVLGGGIVPGSLVLIGGDPGIGKSTLMLQIMSELAEKYKVLYVSGEESASQIKLRADRLGLGQSPMLLYPESNMEHIRDQIDDVKPDFVVIDSIQTMNEPSLDSMVGSASQVREVTAELMKIAKLDQVTVFVIGHVTKEGSIAGPKILEHMVDTVLYFEGDEHHAYRILHSVKNRFGAANEIGMFEMKTEGLAEVTNPSAVFLDERLPDSTGSAVVVSLEGTRPIL | not soluble
MGSDKIHHHHHHMARIPRFALVERDSSNHCTWRAHDFEHVLEEAGATDKFLELLGRYKEKYGVEINSYCLMGTHPHVTCTTRRDQEQFSRFWQVVNGQFARWYNKRRERRGQVVMERMRSPRIQAEGAHQLTVMRYGDLNPVRAGLVKSPKDWKWSSYRHYAFGEPDPLIDDAPEYLALGKTGPQRRKAYQALFALPLSESLRTRRIDLVEYPFVGDAHWVMHRLDVAGLSPPD | not soluble
MGSDKIHHHHHHMARNAKLDRLLTLVKALGESAEGLTLDEMAEVIGANRRTAERLRDLILVHFDLEEGVDDRHKRFRIPGTLPSPFIQPNVAEIAALKSLADTAHKAGSAQAPLLESLVGKVQAGLRREVKSRMAPDLEPLVRLQRHHVPAGPMIEHAPETVAQVQGAMMAGMCLEFDYLADGAAEPKWRRVIPVGLIHGPATYLIGKIPGRDLEPAPYRLDRIIAARVSNQPGAAGEDWDLDQWMSASFGIWREEGYEIVLRVAHESAERARKWRFHPQQMIEQDGEELIVRFHSGGLREIAEHLFTWGGEVRIEGPEELREMMRERLSAAGRAVV | not soluble
MGSDKIHHHHHHMATENPPIYMVGGSKGGVGKSFVTLALVDYLRRMEVNVVLVETDTSNPDVMKAVHDEIECGSCDLDDVSGWIDFVNFCDLHPDATVVVNTAARSQAGVAQYGGTLASTLDELARRLVVLWVINRQRDSLELLLRFGATFPNAITHVVRNGYFGSPDKFTLYRDSQLRNAVEAQGQSLDFPDLADRVADELRSQRLSVSKAAEMMHMGERAELLRWRAVCGTMFARVTPHA | not soluble
MGSDKIHHHHHHMATYNYPEFGAGLWHFANYIDRYAVDGYGPALSTIDQINAAKEVGELSYVDLPYPFTPGVTLSEVKDALKDAGLKAIGITPEIYLQKWSRGAFTNPDPAARAAAFELMHESAGIVRELGANYVKVWPGQDGWDYPFQVSHKNLWKLAVDGMRDLAGANPDVKFAIEYKPREPRVKMTWDSAARTLLGIEDIGLDNVGVLLDFGHALYGGESPADSAQLIIDRGRLFGMDVNDNLRGWDDDLVVGTVHMTEIFEFFYVLKINNWQGVWQLDQFPFRENHVEAAQLSIRFLKHIYRALDKLDIPALQAAQEAQNPLQAQRIVQDALLSSITVSE | not soluble
MGSDKIHHHHHHMAVKTIRTLAHFITACSEIKVKDDHTLFYRGHASDIYTPFPTIFRNQNDDPKKSRYIESEGELFHNLVTQCPEEFKDCTSTFDFLVKMQHYGLPTRLLDITSNPLVALYFACCTLIPESTKDKNAKNGQVLVYQVPNEEIKYYNSDTVSVISNLARVNTSFNFTDEEDRERFLHSIQAEKPYFKPYIKEAHLHSVICVKPKLDNRRIVKQSGAFFLFGMGKNKTDSIRISDKYRPDIKHIDIPKSSKETLLRELATLSISEATLFPEIDNVARFLKKEVKIKSLVVEEIEEEKLGNEISVAYQEFILNSLVLNTDLLEQIQHNSADRAMLGLYPELLQKAIIESQENYNEIALKLLVEEDSADKFAKNIFSKLKHKLEELS | not soluble
MGSDKIHHHHHHMAVRQDTIWERFLSPVMRLLIDEEGLRRYADSIDWEKEGDRFRRDDVIIPSYYSSQNFHGITGGYLTYNAAVSYDPITQYVVPPNETIVRQALIDAVKVKPRRILDLGCGTGSTTLMLKRAFPEAEVIGLDLSPYMLVRAEDKARNSGLEIVWRHGNAEKTSFRDATFDLVTASLLFHETPNEVSLAILQESFRLLVTGGQVLILDGNQKTLRQLEWLNDVFEEPYIREYAAGSIEANMGAAGFEAVRSQDVWWINQVTGGVKPIATENVRRYTPTSVDNNDLEGLGSPAFGIIA | not soluble
MGSDKIHHHHHHMAVSLWQQCIGRLQDELSAQQFSMWIRPLQAEMEGDTLVLYAPNRFVLDWVRDKYINSINQFFTEQLGDNAPKLRFDIGSRPSAKPQAPAPAAVKAAAPQPKPGNSFVSQPEPAVSNHRSNINPTYQFDNFVEGKSNQLGKAAALQVAENPGGAYNPLFLYGGTGLGKTHLLHAVGNGIIKNNPNAKVVYMHSERFVQDMVKALQNNAIEEFKRYYRSVDALFIDDIQFFANKDRSQEEFFHTFNALLEGNHQIILTSDRYPKEIDGVEDRLKSRFGWGLTVAIEPPELETRVAILMRKAQESGINLPDEVAFFIAKRLRSNVRELEGALNRVIANANFTGRPITIDFVREALRDLLALQEKLVTIDNIQKTVAEYYKIKMADMLSKRRSRSVARPRQMAMALSKELTNQSLPEIGDAFGGRDHTTVLHACRKIAQLREESHDIKEDYANLIRTLSS | not soluble
MGSDKIHHHHHHMAYPNGKLSEEKVFKDPVHRYVHVRDKLIWDLIGTREFQRLRRIKQLGTTYLTFHGAEHSRFNHSLGVYEIVRRMVDDVFKGRPEWDDSERELCLAAALLHDLGHGPFSHSFEKVFHLDHEDFTRGIILGDTEVNQVLRKVSPGFPQDVAEVIAKTYKNKQVVSLISSQIDADRMDYLQRDAYYTGVSYGHFDMERILRVMRPREDQIVIKESGMHAVEDYIMSRYQMYWQVYFHPVTRSAEVILTKILHRAKQLHDEGYVFTHAPVHFYSIFEGKLTLEDYVKLDESIILYYFQAWEDEEDAILSDLCRRFINRQLFQYVEFNPNEEMSAYFELTSLFKEAGIDPSYYLVVDSSSDLPYDFYRPGEEEERLPIHLLTQNGQIKELSRQSAIVESISGKRRTDHKLYYPKDLICDGTKHPEAKMKIRQLLGLT | not soluble
MGSDKIHHHHHHMCTRFVYNGKETIVGFNFDIDLSEWEHTVIAEKDRFFIGIKMSDNKYHSFHGINRNGNVGTLLYVHGNDNAQFCSNESCYTIADLTENFIKGNLSFDDSLEIVKKKKITYAPDTTMQAMFSDRNGRVLIIEPGIGYRLEKEKYSLITNYSILKPELTNPYVLSGDNRYEKAKDLLQGYGENFSISNAFDVLRSVRQEGLWATRVSFIYSVAKNKVYYVLNNDFKNIAEYQF | not soluble
MGSDKIHHHHHHMDAIDLKRLSDFVRHRQNEDGGFAFCKPLPSTLAETFYAVSILTSIGEDVPRREKVVEFLKSRIQTEINSLFYTLHSLNLLGEDLPDYSSFLLKRLEGLKAERKYLLSDGGVTATYTFLQPNALRDAYMISTLLHLYNRDVPEETKMLVRRYRRETEFGVGYGVKKPNLEETFYASYILRDKAVISFVKSFESNGGFAKQPGGYPPYLEDTYYATSTLSLLSQRYSNPRTAEFIASLQNANGGFRRSIHGGISTLEDSYYAVEVLRRLEFR | not soluble
MGSDKIHHHHHHMDDEIKKAITNYDDRPAMTKSTQKVFKNQQEMRTVLRDEVEVWQLIHQTDKQAEANIKPKLPPLAGARIMFRHFDFCLFSHDESERMAAYLPNDGIYTQNYRYLKRLIALMYPSYNLRQALDVIYHLEMMAPVRALTIDRYLVPVNNGIWNLHQHQLIPFSPKYVFTTKIATNYRDNATTPNIKGWTIDNWFDELACGDDEIVELLWEVINDCLNGNYTRKKAIFLFSELGNSGKGTFQELITNLVGMDNVGTLKVNEFDVRFRLAGLVGKTVCIGDDIAPDIYIKDSSNFNSVVTGDLVNIEFKGQDGYTSALRCTIVQSCNGLPNFHNKGGTMRRLVIVPFNNHFQGKGDNWSIRNDYITRKDVLEYVLYKALQLDFDKFSVPEVSKKALADFELDNNPLIGFKVSFFDKLKVDKVPTYYLYEYYKKYCSINGLKALGQSKFIRRFMTCVPLYEKKQAKLSATDINTLDVFKQQDEIIAWPREPLAGKKYNCIVQSTL | not soluble
MGSDKIHHHHHHMDEIELRHILHMNPELSFKEYRTKETLRKAVIEIGYEKIIEVAGTGLVIEKKETEDPYVVLRADMDALPIKEETGWEFASRNEYMHACGHDFHMSALYGAMKRLRNVKKNFLFVFQPAEETGGGAKEVVDFLKDKYEIKAAVGFHVTDEYDAGTVASRPGVLFASATEFDVYFKGVPAHVAFAEKGKDALKAAVSFLGWLYNKKWNALVGVGKISGGRARNIVPDEIKLEGTIRSEALRITEEVISNMVKQLGELKEEMGVDFAVERGSVYPEVKVDQNLFETLRETCQRLGFSFVECDMKWTGEDFGYFSQVFPSLLFWFGVGEGERFGLHHPRFLPNDRYIPMAADLLAELAMVI | not soluble
MGSDKIHHHHHHMDKAGKETPFWVQKTLAQLNAHEWEALCDRCGLCCLVKAEDEEAGDIYLTSLICPFFDLKTKVCSCYSQRKQQNPDCSTLTPMTVQTYDWLPDHCAYRLVAAGKPLPTWHPLISGRHDTVVNVMNYFKGVKIRHLQPHSDLEDYLILDPPEG | not soluble
MGSDKIHHHHHHMDKATTPPEFERRRARAAQYLRMSTERQIYSIDNQRDAIRNYAEVMGYDIVATYEDPGRSGLSILGRPGLKRLIEDIESRRADFETVVVYDVSRWGRFQNTDESASYEYRCQRAGVRIEFCAELFVNDGSIGSDVLKAIKRSMAAEYSRMLSNRVFAGQSRIVKLGFSGGGPAGYGLRRLLVDGSGNPKAILHRDQRKGLASDRVVLVPGPENEVSTVRWIFNQFVKKGKTAVEIASALNARGLVTEFGRPWTGACVGTILASEKYVGNIVWNRISHRLLQNRLRNPPSAFVRADNVIEPLVTRALFDRAQAIRRARTYLRPDEELLADLTKLLKERGRLSSPIIDAAPGCHSASIYAHRFGSMNAAYQLIGYDGSANYRKLDIRRRLIQIRQQTIENLMSDIEGVGGSALYDPQTKIMRVNDEFSVAIWTAQYRMNVTGFPRWPFWKRGLIGPEVTILIRMESDNQTVRDFLIAPAHEAQSALHMLKADNGVRLDAFLFASLDPVVEMARREPMPANI | not soluble
MGSDKIHHHHHHMDMTTYPIYLVGGSKGGVGKSFVALALADYLLRQNIRAALVETDTSNPDVMKAVQDEMRCIAYNLDDADGWIGLVNFCDEQRDAAIVVNTAARSQTGVEQFGATLAGALGELQRRLVVLWVINRQRDSLELLHAFSKTFPDAVTNVVRNGYFGPAEKFTLYQGSQLRRSIEARGHSLDFPDLADRVADELRSQRMSIRKAAETMHIGERVELMRWRSLCDAMFARVTVDG | not soluble
